Data on two molecules can be found in PMC8425125, “Regulation of wound ethylene biosynthesis by NAC transcription factors in kiwifruit”.

What all share (assay): EMSA; ~2.5 ug protein, 0.9 pmol probe in 20 uL; 5 mM HEPES-KOH pH 7.6, 30 mM NaCl, 0.2 mM DTT, 0.02 mM EDTA, 0.8 ug salmon sperm DNA, 0.2 ug poly(dI-dC); room temperature 15 min; 4% native PAGE, 0.5x TBE (printed 0.5% w/v), 5% glycerol, pH 8.3, 4 C
Common to all, as to conditions: protein: recombinant; tags: N-terminal MBP (pMAL-c2x); chain copies: 2; label: 3'-biotin; blunt

For series [1], the target named is AcNAC4 DNA-binding domain (Actinidia chinensis, UniProt A0A075ECR2 1-182).
For series [2], the target named is AcNAC2 DNA-binding domain (Actinidia chinensis, UniProt A0A075EAR8 1-182).
The target of series [3] is AcNAC1 DNA-binding domain (Actinidia chinensis, UniProt A0A075EB52 1-182).
The target in series [4] is AcNAC3 DNA-binding domain (Actinidia chinensis, UniProt A0A075EC91 1-182).
AcNAC3 DNA-binding domain, sequence (A0A075EC91 entry or part of it): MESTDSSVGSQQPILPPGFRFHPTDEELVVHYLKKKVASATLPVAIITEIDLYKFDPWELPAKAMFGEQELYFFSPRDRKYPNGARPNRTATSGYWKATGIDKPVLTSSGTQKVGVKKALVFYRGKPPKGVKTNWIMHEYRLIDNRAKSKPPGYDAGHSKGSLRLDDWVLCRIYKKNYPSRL

AcNAC1 DNA-binding domain, sequence (A0A075EB52 entry or part of it): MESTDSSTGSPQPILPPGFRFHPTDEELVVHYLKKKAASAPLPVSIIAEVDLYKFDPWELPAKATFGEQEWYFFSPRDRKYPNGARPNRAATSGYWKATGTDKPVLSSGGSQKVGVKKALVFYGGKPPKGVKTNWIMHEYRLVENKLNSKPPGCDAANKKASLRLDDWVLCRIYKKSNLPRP
AcNAC4 DNA-binding domain, sequence (A0A075ECR2 entry or part of it): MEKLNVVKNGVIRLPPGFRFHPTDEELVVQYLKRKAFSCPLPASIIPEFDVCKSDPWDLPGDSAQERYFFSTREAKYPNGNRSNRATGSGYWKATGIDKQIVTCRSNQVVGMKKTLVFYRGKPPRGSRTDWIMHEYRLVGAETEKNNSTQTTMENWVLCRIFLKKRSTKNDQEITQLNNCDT
AcNAC2 DNA-binding domain, sequence (A0A075EAR8 entry or part of it): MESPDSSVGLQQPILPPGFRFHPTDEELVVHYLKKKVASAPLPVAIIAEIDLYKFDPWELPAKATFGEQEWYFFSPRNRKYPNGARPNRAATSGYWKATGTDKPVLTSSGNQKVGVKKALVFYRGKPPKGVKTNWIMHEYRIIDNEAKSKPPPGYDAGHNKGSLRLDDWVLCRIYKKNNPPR

B1: AcACS1 probe N1MUT (Mut) (dsDNA)
DNA 1: CATCGATCCATCTGTCAACCACATAAC
DNA 2: GTTATGTGGTTGACAGATGGATCGATG
Consider B1, for which the binding result in series [1], in series [2], in series [3] and in series [4] was “no binding” throughout.

B2: AcACS1 probe N1 (Wt) (dsDNA)
DNA 1: CATTATACGTATAGTCAACCACATAAC
DNA 2: GTTATGTGGTTGACTATACGTATAATG
B2: the binding result in series [1], in series [2], in series [3] and in series [4] was “binds” each time.
